Experimental data: patent US20170058030A1
pIC50, pKd: −log10 of the molar value.

Experiments:
FcγRIIb-GST (human) [1] = target: FcγRIIb-GST (human) (UniProt P31994); experiment: FACS on spheroplasts, 400 nM FcγRIIB-GST
FcγRIIb-GST (human) [2] = target: FcγRIIb-GST (human) (UniProt P31994); experiment: FACS on spheroplasts, 100 nM FcγRIIb-GST-PE
FcγRIIb-GST (human) [3] = target: FcγRIIb-GST (human) (UniProt P31994); experiment: FACS on spheroplasts, 400 nM FcγRIIB-GST; remark: listed apart in the source
[4] = target: FcγRIIA (H131 and R131)-GST (human) (UniProt P12318); experiment: FACS on spheroplasts, 400 nM FcγRIIA-GST
mFcγRII-His (mouse) [5] = experiment: FACS on spheroplasts, 100 nM b-mFcγRII, SA-PE
mFcγRIII-His (mouse) [6] = target: mFcγRIII-His (mouse) (UniProt P08508); experiment: FACS on spheroplasts, 1 µM mFcγRIII, anti-His-PE
mFcγRI-His (mouse) = mFcγRI-His (mouse) (UniProt P08101); experiment: FACS on spheroplasts, 1 µM mFcγRI, anti-His-PE
mFcγRIV-His (mouse) = experiment: FACS on spheroplasts, 1 µM mFcγRIV, anti-His-PE
FcγRIIb-GST (human) [7] = target: FcγRIIb-GST (human) (UniProt P31994); experiment: ELISA, IgG coated, 60 nM receptor
FcγRIIb-GST (human) [8] = target: FcγRIIb-GST (human) (UniProt P31994); experiment: SPR, IgG on chip, dimeric FcγRIIB, bivalent fit, KD = KD1/(1 + 1/KD2)
[9] = target: FcγRIIIa-V158-GST (human) (UniProt P08637); experiment: ELISA, IgG coated, 200 nM receptor
FcγRIIa-H131-GST (human) [10] = target: FcγRIIa-H131-GST (human) (UniProt P12318); experiment: ELISA, IgG coated, 200 nM receptor
[11] = target: FcγRIIIa-F158-GST (human) (UniProt P08637); experiment: ELISA, IgG coated, 200 nM receptor
FcγRIIa-R131-GST (human) [12] = target: FcγRIIa-R131-GST (human) (UniProt P12318); experiment: ELISA, IgG coated, 200 nM receptor
FcγRI-His (human) [13] = target: FcγRI-His (human) (UniProt P12314); experiment: SPR, IgG on chip, 200 nM monomeric FcγRI
FcγRIIb-GST (human) [14] = target: FcγRIIb-GST (human) (UniProt P31994); experiment: SPR, IgG on chip, dimeric FcγRIIB, bivalent fit
FcγRI-His (human) [15] = target: FcγRI-His (human) (UniProt P12314); experiment: ELISA, IgG coated, 60 nM FcγRI
FcγRIIa-H131-GST (human) [16] = target: FcγRIIa-H131-GST (human) (UniProt P12318); experiment: ELISA: antibody coated on the plate, receptor titrated in 5-fold steps, HRP-labelled secondary antibody, absorbance at 450 nm
FcγRIIa-R131-GST (human) [17] = target: FcγRIIa-R131-GST (human) (UniProt P12318); experiment: as above
mFcγRIII-His (mouse) [18] = target: mFcγRIII-His (mouse) (UniProt P08508)
mFcγRII-His (mouse) [19] = target: mFcγRII-His (mouse)
[20] = target: FcγRIIIa-V158-GST (human) (UniProt P08637); experiment: ELISA, STPK-Fc coated, receptor titrated

wild-type aglycosylated IgG1 displayed on E. coli spheroplasts (antibody)
MFI (FcγRIIb-GST (human) [1]): 14 | MFI (FcγRIIb-GST (human) [2]): 23.5 | MFI (FcγRIIb-GST (human) [3]): 11.1 | MFI [4]: 40.9

wild-type aglycosylated mIgG1 displayed on E. coli spheroplasts (antibody)
MFI (mFcγRII-His (mouse) [5]): 61.8 | MFI (mFcγRIII-His (mouse) [6]): 143 | MFI (mFcγRI-His (mouse)): 515 | MFI (mFcγRIV-His (mouse)): 155

Rituximab (glycosylated, wild-type IgG1 Fc) (antibody)
absorbance at 450 nm (FcγRIIb-GST (human) [7]): 0.183 | pKd (FcγRIIb-GST (human) [8]): 5.09 | absorbance at 450 nm [9]: 0.848 | absorbance at 450 nm (FcγRIIa-H131-GST (human) [10]): 2.35 | absorbance at 450 nm [11]: 0.203 | absorbance at 450 nm (FcγRIIa-R131-GST (human) [12]): 1.44 | RUmax (FcγRI-His (human) [13]): 260 RU | kD1 (FcγRIIb-GST (human) [14]): 8.69e-06 | kD2 (FcγRIIb-GST (human) [14]): 13.1 | absorbance at 450 nm (FcγRI-His (human) [15]): 1.51

glycosylated wild type IgG1 (control of Example 10) (antibody)
EC50 (read off the curve) (FcγRIIa-H131-GST (human) [16]): 0.04 µM | EC50 (read off the curve) (FcγRIIa-R131-GST (human) [17]): 0.01 µM

STPK-mFc (from UniProt P00779 27-440) (Fc fusion)
pKd (mFcγRIII-His (mouse) [18]): 4.83 | pKd (mFcγRII-His (mouse) [19]): 4.79 | pIC50 [20]: < 6.52
